Source: article PMC2835468 (Matrix biology : journal of the International Society for …, 2009)

Assays:
Test in all cases: enzyme inhibition kinetics
[1] = molecular target: T1, Catalytic domain of human MMP-1 (MMP-1cat) (human, UniProt P03956 100-269)
T1 sequence (looked up): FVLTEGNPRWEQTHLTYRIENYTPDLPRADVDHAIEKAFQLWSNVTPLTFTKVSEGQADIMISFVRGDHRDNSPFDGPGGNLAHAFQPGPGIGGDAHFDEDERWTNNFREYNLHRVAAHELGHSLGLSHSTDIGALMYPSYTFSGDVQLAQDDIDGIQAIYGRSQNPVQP

[2] = molecular target: Catalytic domain of human MMP-3 (MMP-3cat) (human, UniProt P08254 100-272)
Chain of Catalytic domain of human MMP-3 (MMP-3cat) (P08254 100-272): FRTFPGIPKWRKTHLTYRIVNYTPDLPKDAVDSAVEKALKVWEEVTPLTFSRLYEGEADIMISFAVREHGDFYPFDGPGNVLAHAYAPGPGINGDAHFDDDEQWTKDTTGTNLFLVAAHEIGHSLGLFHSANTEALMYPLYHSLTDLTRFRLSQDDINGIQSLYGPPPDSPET

[3] = molecular target: T2, ADAMTS5-1 (full-length human ADAMTS-5, C-terminal FLAG-tag) (human, UniProt Q9UNA0 262-930)
T2 sequence (looked up): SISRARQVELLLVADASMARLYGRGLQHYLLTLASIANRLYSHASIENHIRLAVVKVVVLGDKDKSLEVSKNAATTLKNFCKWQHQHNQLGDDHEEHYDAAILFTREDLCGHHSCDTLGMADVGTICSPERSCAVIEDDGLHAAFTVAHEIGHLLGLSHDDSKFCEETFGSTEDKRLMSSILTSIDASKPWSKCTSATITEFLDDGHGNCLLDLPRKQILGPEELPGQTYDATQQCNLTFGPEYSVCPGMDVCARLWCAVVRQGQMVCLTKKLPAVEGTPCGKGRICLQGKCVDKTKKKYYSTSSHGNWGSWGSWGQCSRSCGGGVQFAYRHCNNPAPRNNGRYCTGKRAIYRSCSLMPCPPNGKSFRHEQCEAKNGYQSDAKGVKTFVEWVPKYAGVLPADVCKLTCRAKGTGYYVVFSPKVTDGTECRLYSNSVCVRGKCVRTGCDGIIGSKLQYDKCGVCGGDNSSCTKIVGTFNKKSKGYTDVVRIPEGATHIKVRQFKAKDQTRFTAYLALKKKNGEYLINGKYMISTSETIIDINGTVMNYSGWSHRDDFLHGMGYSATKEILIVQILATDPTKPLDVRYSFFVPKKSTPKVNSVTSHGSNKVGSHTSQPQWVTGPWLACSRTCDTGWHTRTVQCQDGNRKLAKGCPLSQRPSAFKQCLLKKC

[4] = molecular target: T3, ADAMTS4-4 (human ADAMTS-4 deletion mutant, C-terminal FLAG-tag) (human, UniProt O75173 213-519)
T3 sequence (looked up): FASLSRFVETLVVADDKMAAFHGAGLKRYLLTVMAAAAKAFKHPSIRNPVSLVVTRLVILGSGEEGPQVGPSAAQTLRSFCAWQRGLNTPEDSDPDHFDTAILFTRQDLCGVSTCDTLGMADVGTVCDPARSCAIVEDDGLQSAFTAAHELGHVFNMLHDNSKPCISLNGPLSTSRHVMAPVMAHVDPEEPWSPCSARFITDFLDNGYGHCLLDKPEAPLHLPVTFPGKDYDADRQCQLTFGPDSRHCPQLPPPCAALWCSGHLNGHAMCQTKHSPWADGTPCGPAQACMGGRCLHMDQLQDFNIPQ

[5] = molecular target: T4, ADAMTS4-1 (full-length human ADAMTS-4, C-terminal FLAG-tag) (human, UniProt O75173 213-837)
T4 sequence (looked up): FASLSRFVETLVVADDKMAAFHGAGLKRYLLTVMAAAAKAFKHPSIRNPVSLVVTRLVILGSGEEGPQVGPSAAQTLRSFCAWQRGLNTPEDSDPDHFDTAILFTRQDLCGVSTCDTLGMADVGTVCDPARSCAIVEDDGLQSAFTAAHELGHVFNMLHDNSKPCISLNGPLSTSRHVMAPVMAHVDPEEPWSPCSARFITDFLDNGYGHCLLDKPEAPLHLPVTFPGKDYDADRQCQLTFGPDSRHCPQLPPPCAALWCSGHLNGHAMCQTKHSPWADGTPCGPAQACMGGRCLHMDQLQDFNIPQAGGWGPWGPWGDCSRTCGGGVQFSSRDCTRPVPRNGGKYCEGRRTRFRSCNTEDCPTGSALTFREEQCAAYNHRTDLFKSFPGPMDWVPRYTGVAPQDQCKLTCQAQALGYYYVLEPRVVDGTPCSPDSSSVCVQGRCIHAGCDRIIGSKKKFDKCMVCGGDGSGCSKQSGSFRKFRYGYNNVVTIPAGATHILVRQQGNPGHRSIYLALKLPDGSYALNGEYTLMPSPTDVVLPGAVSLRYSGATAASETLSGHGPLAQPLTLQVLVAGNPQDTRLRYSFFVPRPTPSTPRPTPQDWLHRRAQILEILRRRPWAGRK

Ki [1]: 1.1 nM
Ki [2]: 1 nM
Ki [3]: 0.63 nM
Ki [4]: 0.38 nM
Ki [5]: 0.39 nM
B1: FLAG-tagged glycosylated human TIMP-3 (full-length tissue inhibitor of metalloproteinases 3), expressed in HEK293 (natural protein, UniProt P35625 24-211, looked up)
chain: CTCSPSHPQDAFCNSDIVIRAKVVGKKLVKEGPFGTLVYTIKQMKMYRGFTKMPHVQYIHTEASESLCGLKLEVNKYQYLLTGRVYDGKMYTGLCNFVERWDQLTLSQRKGLNYRYHLGCNCKIKSCYYLPCFVTSKNECLWTDMLSNFGYPGYQSKHYACIRQKGGYCSWYRGWAPPDKSIINATDP
modifications: glycosylated (only the 27 kDa glycosylated form remained after purification; single N-glycosylation site in the C-terminal domain)
